Test results reported in FireProtDB (doi:10.1002/pro.5560061014).

B1: Barstar, P11540 (parent)
chain: MKKAVINGEQIRSISDLHQTLKKELALPEYYGENLDALWDCLTGWVEYPLVLEWRQFEQSKQLTENGAESVLQVFREAKAEGCDITIILS

Variants of: B1
Conditions: Bacillus amyloliquefaciens; pH 7.4; 25 °C; Thermal; DSC; Sodium phosphate 50 mM; reversible: yes; structure 1BTA; whole UniProt chain shown

Variant	heat capacity change of unfolding [kcal/mol/K]	unfolding free energy [kcal/mol]
MKKAVINGEQIRSISDLHQTLKKELALPEYYGENLDALWDCLTGWVEYPLVLEWRQFEQSKQLTENGAESVLQVFREAKAEGADITIILS [C83A]	0.86	6.1

Same assay, conditions: Bacillus amyloliquefaciens; pH 7.4; Thermal; DSC; Sodium phosphate 50 mM; reversible: yes; structure 1BTA; whole UniProt chain shown

Variant	Tm [°C]	change of melting temperature, mutant - wild type (higher = more stable) [°C]	heat capacity change of unfolding [kcal/mol/K]	unfolding enthalpy (calorimetric) [kcal/mol]
MKKAVINGEQIRSISDLHQTLKKELALPEYYGENLDALWDCLTGWVEYPLVLEWRQFEQSKQLTENGAESVLQVFREAKAEGADITIILS [C83A]	71.4	-1.4	0.86	66
